Experimental findings from FireProtDB (doi:10.1016/0167-4838(93)90045-s) are described below.

For this series the following is noted: Carica papaya, Thermal, DSC, glycine 0.05M, reversible: No.

Sequence of Chymopapain wild type, P14080 (P14080 whole entry): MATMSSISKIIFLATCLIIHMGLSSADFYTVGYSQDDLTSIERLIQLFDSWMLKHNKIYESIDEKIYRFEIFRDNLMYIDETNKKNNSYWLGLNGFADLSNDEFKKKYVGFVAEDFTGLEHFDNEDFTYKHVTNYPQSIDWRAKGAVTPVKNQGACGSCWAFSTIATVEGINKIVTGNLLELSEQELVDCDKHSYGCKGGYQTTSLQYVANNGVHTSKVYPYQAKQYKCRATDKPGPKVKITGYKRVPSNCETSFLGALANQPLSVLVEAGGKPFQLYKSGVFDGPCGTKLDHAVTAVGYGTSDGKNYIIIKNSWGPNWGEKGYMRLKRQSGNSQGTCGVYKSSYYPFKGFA

A word on the Tm: it is the temperature at the midpoint of the melting transition. Turning to Chymopapain wild type, P14080, the Tm runs as follows: (pH 1.2) 43 °C; (pH 1.91) 56.9 °C; (pH 2.2) 62 °C; (pH 2.35) 67.9 °C; (pH 2.56) 75.2 °C; (pH 3.18) 81.1 °C. Moreover, for the setting “pH 3.45”, the Tm is 83.7 °C. The “unfolding enthalpy (calorimetric)” value runs as follows: (pH 1.2) 105 kcal/mol; (pH 1.91) 138 kcal/mol; (pH 2.2) 144 kcal/mol; (pH 2.35) 161 kcal/mol; (pH 2.56) 174 kcal/mol; (pH 3.18) 193 kcal/mol. The “unfolding enthalpy (calorimetric)” value (pH 3.45) was found to be 199 kcal/mol.
